{"source": "patent US20240018269A1", "key": {"[1]": {"biological_target": "recombinant soluble FcγRIIa-Arg131 (human) (UniProt P12318)", "sequence (P12318 34-217 H167R)": "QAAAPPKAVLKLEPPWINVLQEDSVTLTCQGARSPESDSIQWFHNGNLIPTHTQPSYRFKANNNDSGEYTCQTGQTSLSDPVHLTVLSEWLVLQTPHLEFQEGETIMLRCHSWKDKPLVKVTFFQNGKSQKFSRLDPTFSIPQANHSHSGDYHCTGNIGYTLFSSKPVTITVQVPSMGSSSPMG", "experiment": "BLI (Octet); anti-TNP IgG captured on TNP-BSA-biotin, rsFcγR in solution; global 1:1 Langmuir fit"}, "[2]": {"biological_target": "recombinant soluble FcγRIIb (human) (UniProt P31994)", "sequence (P31994 43-217)": "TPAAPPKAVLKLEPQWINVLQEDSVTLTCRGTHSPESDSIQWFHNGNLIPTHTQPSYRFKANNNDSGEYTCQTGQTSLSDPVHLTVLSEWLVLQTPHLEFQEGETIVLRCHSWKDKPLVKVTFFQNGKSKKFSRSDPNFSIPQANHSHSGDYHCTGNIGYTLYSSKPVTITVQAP", "experiment": "BLI (Octet); anti-TNP IgG captured on TNP-BSA-biotin, rsFcγR in solution; global 1:1 Langmuir fit"}, "[3]": {"biological_target": "human FcγRIIb expressed on the cell surface (human) (UniProt P31994)", "sequence (P31994 43-310)": "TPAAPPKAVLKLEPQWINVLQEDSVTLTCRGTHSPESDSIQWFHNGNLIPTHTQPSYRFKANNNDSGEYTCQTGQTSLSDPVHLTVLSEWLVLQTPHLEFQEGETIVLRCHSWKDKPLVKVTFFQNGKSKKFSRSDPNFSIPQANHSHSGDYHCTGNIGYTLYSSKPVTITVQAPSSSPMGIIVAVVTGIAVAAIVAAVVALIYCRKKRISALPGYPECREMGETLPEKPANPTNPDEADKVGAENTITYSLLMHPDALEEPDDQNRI", "experiment": "cell-based or functional assay"}}}
{"substance": "chimeric anti-TNP human IgG1-SELF (antibody)", "values": [{"measurement": "Ka", "setting": "[1]", "result": "3.49e+08", "unit": "M⁻¹"}, {"measurement": "Ka", "setting": "[2]", "result": "7.4e+07", "unit": "M⁻¹"}]}
{"substance": "chimeric anti-TNP human IgG4-FEGG (antibody)", "values": [{"measurement": "% inhibition of basophil activation (washed blood BAT)", "setting": "[3]", "result": 42, "unit": "%"}, {"measurement": "% inhibition of basophil activation (whole blood BAT)", "setting": "[3]", "result": 8, "unit": "%"}]}
{"substance": "chimeric anti-TNP human IgG4-LLGG (antibody)", "values": [{"measurement": "% inhibition of basophil activation (whole blood BAT)", "setting": "[3]", "result": 13, "unit": "%"}]}
{"substance": "chimeric anti-TNP human IgG2-FEGG (antibody)", "values": [{"measurement": "Ka", "setting": "[2]", "result": 400000, "unit": "M⁻¹"}]}
